In data set [1] the target is T1, MSH2 (MutSβ subunit);MSH3 (MutSβ subunit) (Homo sapiens;Homo sapiens, UniProt P43246;P20585 1-934;1-1137, |). The data set can be described thus: FRET (DNA bending); no ATP; 100 nM protein; SPR: 25 mM HEPES pH 7.5, 150 mM KCl, 5 mM MgCl2, 1 mM DTT, 0.05% Tween, 0.05% BSA, 25 C; FRET: 50 mM HEPES pH 7.0, 200 mM NaCl, 1 mM MgCl2, 1 mM DTT, 0.05% Tween-20, RT. As to conditions: protein: recombinant;recombinant, tags: none;none, copies: 1;1, label: Cy5 strand 1, Cy3 strand 2, 5' digoxigenin, blunt.

For data set [2], the target named is T1, MSH2 (MutSβ subunit);MSH3 (MutSβ …). As to the kind of experiment: SPR (steady state); no ATP; 5 mM Mg2+; SPR: 25 mM HEPES pH 7.5, 150 mM KCl, 5 mM MgCl2, 1 mM DTT, 0.05% Tween, 0.05% BSA, 25 C; FRET: 50 mM HEPES pH 7.0, 200 mM NaCl, 1 mM MgCl2, 1 mM DTT, 0.05% Tween-20, RT. The settings on record: protein: recombinant;recombinant; tags: none;none; copies: 1;1; label: 5' biotin; blunt.

For data set [3] the target is unchanged. The data set can be described thus: SPR (steady state); 5 mM Mg2+; no ATP; SPR: 25 mM HEPES pH 7.5, 150 mM KCl, 5 mM MgCl2, 1 mM DTT, 0.05% Tween, 0.05% BSA, 25 C; FRET: 50 mM HEPES pH 7.0, 200 mM NaCl, 1 mM MgCl2, 1 mM DTT, 0.05% Tween-20, RT. As to conditions: protein: recombinant;recombinant; tags: none;none; copies: 1;1; label: 5' biotin; blunt, (CAG)2 6-nt extrahelical loop in strand 1.

Data set [4] has the same target. The data set can be described thus: SPR (kinetic, preferred by authors); 5 mM Mg2+; no ATP; SPR: 25 mM HEPES pH 7.5, 150 mM KCl, 5 mM MgCl2, 1 mM DTT, 0.05% Tween, 0.05% BSA, 25 C; FRET: 50 mM HEPES pH 7.0, 200 mM NaCl, 1 mM MgCl2, 1 mM DTT, 0.05% Tween-20, RT. As to conditions: protein: recombinant;recombinant; tags: none;none; copies: 1;1; label: 5' biotin; blunt, (CAG)2 6-nt extrahelical loop in strand 1.

B1: 70 bp (CAG)1 loop DNA (FRET) (dsDNA)
DNA 1: CACACGTTCCGAGATATCCTAGCAAGTGATCAGCGTCTATGTAGCTCAAGAGTTCGACTCAGCCTACACCGAG
DNA 2: CTCGGTGTAGGCTGAGTCGAACTCTTGAGCTACATAGACGATCACTTGCTAGGATATCTCGGAACGTGTG
modifications: internal dye-dT
Regarding B1, the binding result in data set [1] (3-nt CAG loop in strand 1) was “binds”.

B2: 70 bp (CAG)2 loop DNA (FRET) (dsDNA)
DNA 1: CACACGTTCCGAGATATCCTAGCAAGTGATCAGCAGCGTCTATGTAGCTCAAGAGTTCGACTCAGCCTACACCGAG
DNA 2: CTCGGTGTAGGCTGAGTCGAACTCTTGAGCTACATAGACGATCACTTGCTAGGATATCTCGGAACGTGTG
modifications: internal dye-dT
With B2, the binding result in data set [1] (6-nt (CAG)2 loop in strand 1) is listed as “binds”.

B3: 70 bp (CAG)4 loop DNA (FRET) (dsDNA)
DNA 1: CACACGTTCCGAGATATCCTAGCAAGTGATCAGCAGCAGCAGCGTCTATGTAGCTCAAGAGTTCGACTCAGCCTACACCGAG
DNA 2: CTCGGTGTAGGCTGAGTCGAACTCTTGAGCTACATAGACGATCACTTGCTAGGATATCTCGGAACGTGTG
modifications: internal dye-dT
With B3, the binding result in data set [1] (12-nt (CAG)4 loop in strand 1) is “binds”.

B4: 61 bp homoduplex, biotinylated (SPR) (dsDNA)
DNA 1: CTGAAGCTTAGCTTAGGATCATCGAGGATCAGCTCGGTGCAATTCAGCGGTACCCAATTC
DNA 2: GAATTGGGTACCGCTGAATTGCACCGAGCTGATCCTCGATGATCCTAAGCTAAGCTTCAG
Turning to B4, the Kd in data set [2] worked out at 3320 pM.

B5: 61 bp (CAG)2 loop DNA, biotinylated (SPR) (dsDNA)
DNA 1: CTGAAGCTTAGCTTAGGATCATCGAGGATCCAGCAGAGCTCGGTGCAATTCAGCGGTACCCAATTC
DNA 2: GAATTGGGTACCGCTGAATTGCACCGAGCTGATCCTCGATGATCCTAAGCTAAGCTTCAG
With B5, the equilibrium dissociation constant (Kd) amounted to 265 pM in data set [3] and 67.2 pM in data set [4].

The term Kd denotes the equilibrium constant for the complex coming apart.

The values above are taken from PMC12231599, “Elucidation of multiple high-resolution states of human MutSβ by cryo-EM reveals interplay between ATP/ADP binding and heteroduplex DNA recognition”.
